Assay results published in article PMC2171506.

Target: CYK-4/MgcRacGAP (UniProt Q9H0H5)
Experiment: myc IP, anti-CYK-4 Western blot
Conditions: reference: E6 wild type; sites T342

UniProt Q9H0H5, sequence (Q9H0H5 whole entry, looked up): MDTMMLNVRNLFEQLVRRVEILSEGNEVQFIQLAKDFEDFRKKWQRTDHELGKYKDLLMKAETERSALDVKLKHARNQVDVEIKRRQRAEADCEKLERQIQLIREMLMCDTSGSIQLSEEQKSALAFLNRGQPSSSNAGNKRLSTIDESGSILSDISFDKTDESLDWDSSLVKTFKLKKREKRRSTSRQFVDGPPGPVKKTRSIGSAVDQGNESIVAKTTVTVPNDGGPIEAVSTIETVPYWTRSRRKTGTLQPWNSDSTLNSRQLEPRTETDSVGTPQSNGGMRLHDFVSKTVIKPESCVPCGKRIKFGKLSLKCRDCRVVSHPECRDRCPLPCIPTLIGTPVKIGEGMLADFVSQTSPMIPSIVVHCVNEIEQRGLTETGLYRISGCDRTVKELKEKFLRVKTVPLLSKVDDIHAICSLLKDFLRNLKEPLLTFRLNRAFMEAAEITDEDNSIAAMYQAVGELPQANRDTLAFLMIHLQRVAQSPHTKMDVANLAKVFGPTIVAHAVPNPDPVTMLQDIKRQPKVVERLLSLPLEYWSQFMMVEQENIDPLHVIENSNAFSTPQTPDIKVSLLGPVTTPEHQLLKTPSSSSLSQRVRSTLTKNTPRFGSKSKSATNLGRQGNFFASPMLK

ECT2 E6, 1-352 (from UniProt Q9H8V3-4) E6* (T342A)
binding against the reference: stronger
